Laboratory results taken from PMC7042354, “Distinct surfaces on Cdc5/PLK Polo-box domain orchestrate combinatorial substrate recognition during cell division” (Scientific Reports, 2020).
Square brackets hold non-standard residues; d marks the D form. Ends that are not written are not given here. pS = N[C@@H](COP(=O)(O)O)C(=O)O

Experiments:
cdc5-S630Q mutant = assay: Proliferation assay (spot dilution) of cdc5 mutants with DNA damaging agents; assay type: cell-based, Saccharomyces cerevisiae; conditions: 0.4 μM 4-NQO on YPAD, 23 °C, n = 5
Protocol: All yeast strains used in this study were constructed in the W303 background and their relevant genotypes are summarized in (Supplemental Table 2). Standard conditions and procedures were used for yeast growth, sporulation and tetrad dissection. Growth of temperature-sensitive (ts) mutants in liquid media was performed at 23 °C (permissive temperature) and 37 °C (non-permissive temperature).
The temperature-sensitive (ts) growth behavior of cdc5 mutants was monitored on solid YPAD medium at the following temperatures: 23, 30 and 37.5 °C. Their sensitivity to DNA replication inhibitors and DNA damaging agents was assessed at 23 °C on YPAD medium containing either 100 mM hydroxyurea (HU) or 0.4 μM 4-nitroquinoline N-oxide (4-NQO). In all cases, cultures of yeast strains were diluted fivefold and subsequently spotted on solid medium, using a starting OD600 of 0.2 in the first dilution. Yeast were allowed to grow for approximately 36–72 hours at the indicated temperatures prior to scanning plates. The experiment was repeated 5 times (n = 5).

[1] = target: T1, polo-box domain of Cdc5 (residues 418–705) (Saccharomyces cerevisiae, UniProt P32562 418-705); assay: ITC; Nano ITC; 30 µM protein in the chamber cell, 280 µM peptide in the syringe; storage buffer (50 mM TRIS-HCl pH 7.0, 200 mM NaCl, 1.4 mM 2-mercaptoethanol, 5% glycerol) with 20 mM EDTA pH 8.0; conditions: both partners purified
T1 construct: Cdc5, Polo-like kinase of Saccharomyces cerevisiae, residues 418-705 (polo-box domain with the preceding extension), subcloned in pPROEX HTa; Residues 418-459 disordered in the crystal; loop 594-601 possibly cleaved during crystallization of the apo form; also called Cdc5^PBD; PBD of Cdc5
T1 sequence (looked up): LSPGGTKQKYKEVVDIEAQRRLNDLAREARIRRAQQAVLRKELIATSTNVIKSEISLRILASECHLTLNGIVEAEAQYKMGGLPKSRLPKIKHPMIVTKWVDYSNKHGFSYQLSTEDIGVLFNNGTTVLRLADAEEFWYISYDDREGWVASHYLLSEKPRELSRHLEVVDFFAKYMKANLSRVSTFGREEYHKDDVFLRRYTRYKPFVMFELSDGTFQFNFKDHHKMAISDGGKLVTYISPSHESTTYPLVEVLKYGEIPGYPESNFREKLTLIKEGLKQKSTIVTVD

[2] = target: T1, polo-box domain of Cdc5 (residues …); assay: crystal structure; Cdc5 polo-box domain (5 mg/mL) mixed with Dbf4 peptide at 1:10 protein:peptide, overnight at 4 °C; crystals in 20% PEG 3350, 200 mM sodium potassium tartrate, 10 mM trimethylamine hydrochloride; conditions: both partners purified
[3] = target: T2, polo-box domain of Cdc5 pre-incubated with the Dbf4 peptide (Cdc5-Dbf4) (Saccharomyces cerevisiae | S. cerevisiae, UniProt P32562 418-705); assay: saturation-transfer difference (STD) NMR and 1D 1H NMR chemical shifts; ternary sample: 20 µM Cdc5 with both Dbf4 and Spc72^P peptides (500 µM); 20 mM sodium phosphate pH 7.0, 200 mM NaCl, 20 mM EDTA, >99% D2O; 298 K; conditions: both partners purified
T2 construct: Cdc5, Polo-like kinase of Saccharomyces cerevisiae, residues 418-705; Dbf4 of budding yeast, residues 73-96

[4] = target: T1, polo-box domain of Cdc5 (residues …); assay: crystal structure; Cdc5 polo-box domain (5 mg/mL) mixed with Spc72^P at 1:15 protein:peptide, overnight at 4 °C; crystals in 100 mM Bis-TRIS pH 6.5, 25% PEG3350, 200 mM MgCl2, 100 mM CsCl; conditions: both partners purified

In the case of `O=[N+]([O-])c1cc[n+]([O-])c2ccccc12` [4-NQO, 4-nitroquinoline 1-oxide], the “growth of cdc5-S630Q mutant in presence of agent” value (cdc5-S630Q mutant; 36–72 h) is reported as “very little or no growth” and the “hypersensitivity of cdc5-S630Q mutant compared with smc5-6 cells” value (cdc5-S630Q mutant) is reported as “comparable to that of cells defective in the Smc5-6 complex”.

B1: Dbf4-derived peptide (73-96) (peptide)
peptide: EKKRARIERARSIEGAVQVSKGTG
notes: Dbf4, regulatory subunit of the Dbf4-dependent kinase of budding yeast, residues 73-96; Peptide used for ITC and NMR; also called Dbf4 peptide; source: synthetic peptide, bought: GenScript
For B1, the Kd [1] was ~500 nM.

B2: Dbf4-derived peptide (76-96) from the polo-interacting region of Dbf4 (peptide)
peptide: RARIERARSIEGAVQVSKGTG
notes: Dbf4, regulatory subunit of the Dbf4-dependent kinase of budding yeast, residues 76-96; Peptide used for crystallization; also called Dbf4 peptide; source: synthetic peptide, bought: GenScript
B2: binds [2].

B3: Spc72^P phosphorylated peptide (printed as 222-237) (peptide)
peptide: DKEEFLSLAQS[pS]PAGSQ
notes: Spc72, spindle pole body protein of budding yeast; Peptide used for ITC and NMR; also called Scp72^P; Spc72^P peptide; source: synthetic peptide, bought: GenScript
B3: binds [3]; binds [1].

B4: Spc72^P phosphorylated peptide (227-237) derived from the spindle-pole body protein Spc72 (peptide)
peptide: SLAQS[pS]PAGSQ
notes: Spc72, spindle pole body protein of budding yeast, residues 227-237; Peptide used for crystallization; also called Spc72^P phosphopeptide; source: synthetic peptide, bought: GenScript
B4: binds [4].
